The subject of data set [1] is HeLa Kyoto. Description: solubility change mitosis vs G1/S (difference of NP-40 vs SDS log2 ratios) (log2 ratio difference); higher = more soluble in mitosis.
Data set [2] has as its system HeLa Kyoto. Nature of the data set: melting temperature (median over replicates), in situ; higher = more thermally stable.
In data set [3] the test system is HeLa Kyoto. Nature of the data set: solubility in G1/S (NP-40 vs SDS abundance) (log2 ratio); higher = more soluble. The following applies: cell cycle stage: G1/S.
The subject of data set [4] is HeLa Kyoto. Description: thermal stability score vs G1/S (z-score of summed log2 fold changes over temperatures); higher = more thermally stable than in G1/S.
Setting [5] is: cell cycle stage: early G1 (4.5 h after nocodazole release).
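For melting temperature (median over replicates), in situ in this document: HeLa Kyoto cells synchronized by double thymidine or nocodazole block, proteins quantified by TMT10plex mass spectrometry, three independent biological replicates.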
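For solubility change mitosis vs G1/S (difference of NP-40 vs SDS log2 ratios) in this document: synchronized HeLa Kyoto cells (double thymidine block for G1/S, nocodazole release for mitosis), protein amounts in NP-40 versus SDS lysates quantified by mass spectrometry, three biological replicates.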
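For solubility in G1/S (NP-40 vs SDS abundance) in this document: HeLa Kyoto cells arrested at G1/S by double thymidine block, proteins quantified by TMT10plex mass spectrometry in mild NP-40 versus SDS extracts, three biological replicates.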
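For thermal stability score vs G1/S (z-score of summed log2 fold changes over temperatures) in this document: synchronized HeLa Kyoto cells, proteins quantified by TMT10plex mass spectrometry, three biological replicates, mitosis taken 0.5 h after nocodazole release, G1/S directly after double thymidine block.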

On to “MVLLRVLILLLSWAAGMGGQYGNPLNKYIRHYEGLSYNVDSLHQKHQRAKRAVSHEDQFLRLDFHAHGRHFNLRMKRDTSLFSDEFKVETSNKVLDYDTSHIYTGHIYGEEGSFSHGSVIDGRFEGFIQTRGGTFYVEPAERYIKDRTLPFHSVIYHEDDINYPHKYGPQGGCADHSVFERMRKYQMTGVEEVTQIPQEEHAANGPELLRKKRTTSAEKNTCQLYIQTDHLFFKYYGTREAVIAQISSHVKAIDTIYQTTDFSGIRNISFMVKRIRINTTADEKDPTNPFRFPNIGVEKFLELNSEQNHDDYCLAYVFTDRDFDDGVLGLAWVGAPSGSSGGICEKSKLYSDGKKKSLNTGIITVQNYGSHVPPKVSHITFAHEVGHNFGSPHDSGTECTPGESKNLGQKENGNYIMYARATSGDKLNNNKFSLCSIRNISQVLEKKRNNCFVESGQPICGNGMVEQGEECDCGYSDQCKDECCFDANQPEGRKCKLKPGKQCSPSQGPCCTAQCAFKSKSEKCRDDSDCAREGICNGFTALCPASDPKPNFTDCNRHTQVCINGQCAGSICEKYGLEECTCASSDGKDDKELCHVCCMKKMDPSTCASTGSVQWSRHFSGRTITLQPGSPCNDFRGYCDVFMRCRLVDADGPLARLKKAIFSPELYENIAEWIVAHWWAVLLMGIALIMLMAGFIKICSVHTPSSNPKLPPPKPLPGTLKRRRPPQPIQQPQRQRPRESYQMGHMRR [ADAM10]”, for which the “solubility change mitosis (log2)” value with HeLa Kyoto [1] was -0.0492. In addition, the melting temperature in the data set with HeLa Kyoto [2] (cell cycle stage: G1/S) was 53.3 °C; in the data set on HeLa Kyoto [2] (cell cycle stage: mitosis), 53.9 °C. The “solubility in G1/S (log2)” value with HeLa Kyoto [3] is -0.0721. Further, the thermal stability score was determined as 0.749 in the data set with HeLa Kyoto [4] (setting [5]) and 1.37 in the data set with HeLa Kyoto [4] (cell cycle stage: mitosis).
In the case of “MSRPRKRLAGTSGSDKGLSGKRTKTENSGEALAKVEDSNPQKTSATKNCLKNLSSHWLMKSEPESRLEKGVDVKFSIEDLKAQPKQTTCWDGVRNYQARNFLRAMKLGEEAFFYHSNCKEPGIAGLMKIVKEAYPDHTQFEKNNPHYDPSSKEDNPKWSMVDVQFVRMMKRFIPLAELKSYHQAHKATGGPLKNMVLFTRQRLSIQPLTQEEFDFVLSLEEKEPS [THYN1]”, in the data set with HeLa Kyoto [1], the “solubility change mitosis (log2)” value is 0.199. For the same sequence, the results for the melting temperature with HeLa Kyoto [2] (cell cycle stage: G1/S) and in the data set with HeLa Kyoto [2] (cell cycle stage: mitosis) were 47.3 °C and 51.3 °C, respectively. For the same sequence, the “solubility in G1/S (log2)” value in the data set on HeLa Kyoto [3] is 0.389. Besides, the thermal stability score in the data set on HeLa Kyoto [4] (setting [5]) is -1.19; in the data set on HeLa Kyoto [4] (cell cycle stage: mitosis), -1.36.
For the sequence “MATERSRSAMDSPVPASMFAPEPSSPGAARAAAAAARLHGGFDSDCSEDGEALNGEPELDLTSKLVLVSPTSEQYDSLLRQMWERMDEGCGETIYVIGQGSDGTEYGLSEADMEASYATVKSMAEQIEADVILLRERQEAGGRVRDYLVRKRVGDNDFLEVRVAVVGNVDAGKSTLLGVLTHGELDNGRGFARQKLFRHKHEIESGRTSSVGNDILGFDSEGNVVNKPDSHGGSLEWTKICEKSTKVITFIDLAGHEKYLKTTVFGMTGHLPDFCMLMVGSNAGIVGMTKEHLGLALALNVPVFVVVTKIDMCPANILQETLKLLQRLLKSPGCRKIPVLVQSKDDVIVTASNFSSERMCPIFQISNVTGENLDLLKMFLNLLSPRTSYREEEPAEFQIDDTYSVPGVGTVVSGTTLRGLIKLNDTLLLGPDPLGNFLSIAVKSIHRKRMPVKEVRGGQTASFALKKIKRSSIRKGMVMVSPRLNPQASWEFEAEILVLHHPTTISPRYQAMVHCGSIRQTATILSMDKDCLRTGDKATVHFRFIKTPEYLHIDQRLVFREGRTKAVGTITKLLQTTNNSPMNSKPQQIKMQSTKKGPLTKRDEGGPSGGPAVGAPPPGDEASSVGAGQPAASSNLQPQPKPSSGGRRRGGQRHKVKSQGACVTPASGC [GTPBP1]”, the “solubility change mitosis (log2)” value with HeLa Kyoto [1] is -0.0833. Also, the figures for the melting temperature with HeLa Kyoto [2] (cell cycle stage: G1/S) and in the data set on HeLa Kyoto [2] (cell cycle stage: mitosis) were 51.1 °C and 50.7 °C, respectively. Further, the “solubility in G1/S (log2)” value in the data set with HeLa Kyoto [3] is 0.0683. Besides, the thermal stability score with HeLa Kyoto [4] (setting [5]) was 1.01; with HeLa Kyoto [4] (cell cycle stage: mitosis), 0.553.
On to “MIAHKQKKTKKKRAWASGQLSTDITTSEMGLKSLSSNSIFDPDYIKELVNDIRKFSHMLLYLKEAIFSDCFKEVIHIRLEELLRVLKSIMNKHQNLNSVDLQNAAEMLTAKVKAVNFTEVNEENKNDLFQEVFSSIETLAFTFGNILTNFLMGDVGNDSLLRLPVSRETKSFENVSVESVDSSSEKGNFSPLELDNVLLKNTDSIELALSYAKTWSKYTKNIVSWVEKKLNLELESTRNMVKLAEATRTNIGIQEFMPLQSLFTNALLNDIESSHLLQQTIAALQANKFVQPLLGRKNEMEKQRKEIKELWKQEQNKMLEAENALKKAKLLCMQRQDEYEKAKSSMFRAEEEHLSSSGGLAKNLNKQLEKKRRLEEEALQKVEEANELYKVCVTNVEERRNDLENTKREILAQLRTLVFQCDLTLKAVTVNLFHMQHLQAASLADSLQSLCDSAKLYDPGQEYSEFVKATNSTEEEKVDGNVNKHLNSSQPSGFGPANSLEDVVRLPDSSNKIEEDRCSNSADITGPSFIRSWTFGMFSDSESTGGSSESRSLDSESISPGDFHRKLPRTPSSGTMSSADDLDEREPPSPSETGPNSLGTFKKTLMSKAALTHKFRKLRSPTKCRDCEGIVVFQGVECEECLLVCHRKCLENLVIICGHQKLPGKIHLFGAEFTQVAKKEPDGIPFILKICASEIENRALCLQGIYRVCGNKIKTEKLCQALENGMHLVDISEFSSHDICDVLKLYLRQLPEPFILFRLYKEFIDLAKEIQHVNEEQETKKNSLEDKKWPNMCIEINRILLKSKDLLRQLPASNFNSLHFLIVHLKRVVDHAEENKMNSKNLGVIFGPSLIRPRPTTAPITISSLAEYSNQARLVEFLITYSQKIFDGSLQPQDVMCSIGVVDQGCFPKPLLSPEERDIERSMKSLFFSSKEDIHTSESESKIFERATSFEESERKQNALGKCDACLSDKAQLLLDQEAESASQKIEDGKTPKPLSLKSDRSTNNVERHTPRTKIRPVSLPVDRLLLASPPNERNGRNMGNVNLDKFCKNPAFEGVNRKDAATTVCSKFNGFDQQTLQKIQDKQYEQNSLTAKTTMIMPSALQEKGVTTSLQISGDHSINATQPSKPYAEPVRSVREASERRSSDSYPLAPVRAPRTLQPQHWTTFYKPHAPIISIRGNEEKPASPSAAVPPGTDHDPHGLVVKSMPDPDKASACPGQATGQPKEDSEELGLPDVNPMCQRPRLKRMQQFEDLEGEIPQFV [ARHGAP29]”, for which the “solubility change mitosis (log2)” value with HeLa Kyoto [1] is -0.0634. Further, the melting temperature with HeLa Kyoto [2] (cell cycle stage: G1/S) amounted to 50.5 °C; in the data set on HeLa Kyoto [2] (cell cycle stage: mitosis) it was 51.1 °C. Besides, the “solubility in G1/S (log2)” value with HeLa Kyoto [3] is -0.185. In addition, the figures for the thermal stability score in the data set with HeLa Kyoto [4] (setting [5]) and with HeLa Kyoto [4] (cell cycle stage: mitosis) were 1 and 1.36, respectively.
For the sequence “MPRDNMASLIQRIARQACLTFRGSGGGRGASDRDAASGPEAPMQPGFPENLSKLKSLLTQLRAEDLNIAPRKATLQPLPPNLPPVTYMHIYETDGFSLGVFLLKSGTSIPLHDHPGMHGMLKVLYGTVRISCMDKLDAGGGQRPRALPPEQQFEPPLQPREREAVRPGVLRSRAEYTEASGPCILTPHRDNLHQIDAVEGPAAFLDILAPPYDPDDGRDCHYYRVLEPVRPKEASSSACDLPREVWLLETPQADDFWCEGEPYPGPKVFP [ADO]”, the “solubility change mitosis (log2)” value in the data set with HeLa Kyoto [1] stood at 0.0512. Moreover, the melting temperature was determined as 54.1 °C in the data set on HeLa Kyoto [2] (cell cycle stage: G1/S) and 53.7 °C in the data set with HeLa Kyoto [2] (cell cycle stage: mitosis). In addition, the “solubility in G1/S (log2)” value in the data set on HeLa Kyoto [3] stood at 0.474. Moreover, the thermal stability score is -2.72 in the data set on HeLa Kyoto [4] (setting [5]) and -3.58 in the data set on HeLa Kyoto [4] (cell cycle stage: mitosis).

For the origin of these results see the supplement of paper PMC5998384.
